Experimental data reported in patent publication US20140017235A1.

Molecular target: human NGF (human) (UniProt P01138)
Experiment: cell-based or functional assay

human NGF (human), sequence (P01138 122-241 limits assumed): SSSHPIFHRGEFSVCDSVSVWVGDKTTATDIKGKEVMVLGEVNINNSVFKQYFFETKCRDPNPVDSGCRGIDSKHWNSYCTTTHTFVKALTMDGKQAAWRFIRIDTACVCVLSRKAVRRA

mouse antibody 911 (Fab)
antibody concentration that totally blocked NGF-elicited survival of trigeminal neurons: 20 nM
